From patent US11965032 (TG THERAPEUTICS, dated 2024)

Key:
[1] = target: T1, HRP conjugated human C1q (human, UniProt P02745 23-245; P02746 28-253; P02747 29-245, peroxidase (HRP) conjugated; site not stated); experiment: ELISA: antibody dilutions coated on the plate, HRP conjugated human C1q added, TMB, OD 450
T1 construct: also called Peroxidase conjugated C1q
Method: (§1) The C1q binding assay used for this analysis is an ELISA assay. Samples were coated on ELISA plates, HRP conjugated human C1q is incubated with samples on the plate. The bound HRP, in the presence of substrate TMB, generates a colorimetric signal. […] Sample dilutions are coated onto ELISA plates, and the plates incubated for 1 hour±30 min at room temperature. After coating, the plates are washed, blocked, and washed again. Peroxidase conjugated C1q was added, and the plates incubated for 1.5 hours±30 minutes at room temperature. After incubation and washing, a tetramethylbenzidine (TMB) substrate solution was added and plates incubated at room temperature for 7 minutes (~1 min/+30 seconds). This produces a colorimetric reaction which is proportional to the level of C1q bound. The reaction is stopped with the addition of 1M sulfuric acid and the color is measured at 450 nm using a Molecular Devices SPECTRAMAX® microplate reader. SOFTMAX® PRO is used to analyze the data with weighted nonlinear regression using a 4-parameter logistic fit. […] EC50 of each test sample, based on the 4-parameter logistic fitted curve, were generated for additional information.

[2] = target: T2, CD20 on Jeko-1, Raji and Daudi cells (human, UniProt P11836 1-297); experiment: flow cytometry (FACS) on Raji cells, PE conjugated anti-human secondary antibody
T2 construct: whole, on cells; also called cell surface CD20
T2 sequence (looked up): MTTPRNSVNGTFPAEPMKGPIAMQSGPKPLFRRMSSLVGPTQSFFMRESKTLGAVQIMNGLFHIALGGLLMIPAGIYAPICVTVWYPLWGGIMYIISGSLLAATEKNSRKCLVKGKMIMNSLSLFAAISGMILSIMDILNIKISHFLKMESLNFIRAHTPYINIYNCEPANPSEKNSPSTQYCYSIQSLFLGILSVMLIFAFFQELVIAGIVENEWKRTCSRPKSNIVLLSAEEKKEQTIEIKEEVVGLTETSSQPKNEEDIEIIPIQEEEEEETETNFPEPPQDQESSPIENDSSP
Method: (§2) A six-point dilution series of the samples, in duplicates and in the concentration range of 40 μg/ml-0 ug/ml with a dilution factor of 5 were used. Cells were incubated with sample dilutions; binding was detected using a PE conjugated anti-human secondary antibody.

[3] = target: T2, CD20 on Jeko-1, Raji and Daudi cells; experiment: cell-based MSD electrochemiluminescence binding assay on CD20 expressing Jeko-1 cells
[4] = target: T3, FcγIIIA Receptor on the effector cells (human, UniProt P08637 17-254); experiment: cell-based or functional assay
[5] = target: T1, HRP conjugated human C1q; experiment: ELISA, antibody coated on the plate, HRP conjugated human C1q
Method: as §1

[6] = target: C1q in the complement system (rabbit serum as the source of complement) (rabbit); experiment: cell-based or functional assay
[7] = target: T3, FcγIIIA Receptor on the effector cells; experiment: cell-based or functional assay; remark: listed apart in the source
[8] = target: T4, FcγRIIIa 158V receptor (SPR assay) (UniProt P08637 17-208, limits assumed); experiment: SPR, receptor amine-coupled to the chip, antibody injected, 1:1 kinetics; average of 4 values
T4 construct: Immobilised on the SPR chip by amine coupling; The 158V allotype uses mature numbering
Method: (§3) The method follows a direct binding assay methodology where the FcγRIIIa receptor is directly immobilized onto the flow cell on a sensor chip surface and samples are injected over the chip to assess binding. […] Independent duplicates of sample dilutions are injected over the chip, followed by surface regeneration between each cycle. The binding is measured in response units (RU). The kinetics of the binding reaction is determined by measuring changes in SPR due to the increase in mass in the close proximity to the biosensor chip surface. Change in the mass of the complex as a function of time is visualized as a sensorgram.
(§4) The equilibrium dissociation constants (K_D) of each sample is determined for each receptor.

[9] = target: T3, FcγIIIA Receptor on the effector cells; experiment: cell-based or functional assay; remark: listed apart in the source
[10] = target: T5, FcγRIIIB (human Fc receptor panel, Octet) (human, UniProt O75015 17-200); experiment: BLI (Octet HTX), receptor on anti-penta-His biosensor, 1:1 model
T5 construct: Captured on anti-penta-His biosensors, so it carries a His tag
Method: (§5) This analysis was performed by LakePharma. Binding characterization were carried out on Octet HTX instrument at 25° C. Human Fc receptor panel were loaded onto Anti-Penta His (H1S1K) biosensors. Loaded sensors were dipped into a serial dilutions of the testing samples (300 nM start, 1:3 dilution, 7 points). Kinetic constants were calculated using a monovalent (1:1) binding model.

[11] = target: T6, FcRn (human Fc receptor panel, Octet) (human, UniProt P55899 24-297; P61769 21-119); experiment: as above
T6 construct: Captured on anti-penta-His biosensors, so it carries a His tag
Method: as §5

[12] = target: T7, FcγRIIA (human Fc receptor panel, Octet) (human, UniProt P12318 36-218, limits assumed); experiment: as above
T7 construct: Captured on anti-penta-His biosensors, so it carries a His tag
T7 sequence (looked up): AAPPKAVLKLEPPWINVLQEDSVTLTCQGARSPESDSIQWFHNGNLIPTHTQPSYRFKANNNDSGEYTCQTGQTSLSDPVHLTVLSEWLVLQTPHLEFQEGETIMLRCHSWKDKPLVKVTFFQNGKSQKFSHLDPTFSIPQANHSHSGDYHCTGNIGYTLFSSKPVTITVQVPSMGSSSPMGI
Method: as §5

[13] = target: T8, FcγRIIB/C (human Fc receptor panel, Octet) (human, UniProt P31994 46-217, limits assumed); experiment: as above
T8 construct: Captured on anti-penta-His biosensors, so it carries a His tag
T8 sequence (looked up): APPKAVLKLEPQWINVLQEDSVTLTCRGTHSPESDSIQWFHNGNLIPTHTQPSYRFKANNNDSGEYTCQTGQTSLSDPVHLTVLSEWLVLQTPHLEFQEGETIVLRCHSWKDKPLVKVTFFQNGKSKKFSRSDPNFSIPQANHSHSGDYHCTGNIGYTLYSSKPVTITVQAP
Method: as §5

[14] = target: T9, FcγRIIIA V158 (human Fc receptor panel, Octet) (human, UniProt P08637 17-208); experiment: as above
T9 construct: Captured on anti-penta-His biosensors, so it carries a His tag; It is kept apart from the SPR receptor because the constructs may differ; also called FcγRIIIa 158V
Method: as §5

[15] = target: T10, FcγRI (human Fc receptor panel, Octet) (human, UniProt P12314 16-288, limits assumed); experiment: as above
T10 construct: Captured on anti-penta-His biosensors, so it carries a His tag
Method: as §5

[16] = target: T11, FcγRIIIA F158 (human Fc receptor panel, Octet) (human, UniProt P08637 17-208); experiment: as above
T11 construct: Captured on anti-penta-His biosensors, so it carries a His tag; It is kept apart from the SPR receptor because the constructs may differ
Method: as §5

[17] = target: T12, FcγRIIIa 158F receptor (SPR assay) (UniProt P08637 17-208, limits assumed); experiment: SPR, receptor amine-coupled to the chip, antibody injected, steady state affinity; average of 4 values
T12 construct: Immobilised on the SPR chip by amine coupling
Method: as §3, §4

[18] = target: T2, CD20 on Jeko-1, Raji and Daudi cells; experiment: flow cytometry (FACS) on Daudi cells, PE conjugated anti-human secondary antibody; Daudi cells
Method: as §2

[19] = target: T12, FcγRIIIa 158F receptor (SPR assay); experiment: SPR, receptor immobilised
Method: as §3, §4

[20] = target: T4, FcγRIIIa 158V receptor (SPR assay); experiment: SPR, receptor immobilised
Method: as §3, §4

T3 sequence (P08637 17-254): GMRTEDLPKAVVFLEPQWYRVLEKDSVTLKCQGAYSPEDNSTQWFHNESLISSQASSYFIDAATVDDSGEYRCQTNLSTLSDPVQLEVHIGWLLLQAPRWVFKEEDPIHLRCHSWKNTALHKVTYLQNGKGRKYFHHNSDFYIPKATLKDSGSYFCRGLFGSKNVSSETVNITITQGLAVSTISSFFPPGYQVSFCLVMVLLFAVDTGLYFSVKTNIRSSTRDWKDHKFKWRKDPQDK
T4 sequence (P08637 17-208 F176V limits assumed): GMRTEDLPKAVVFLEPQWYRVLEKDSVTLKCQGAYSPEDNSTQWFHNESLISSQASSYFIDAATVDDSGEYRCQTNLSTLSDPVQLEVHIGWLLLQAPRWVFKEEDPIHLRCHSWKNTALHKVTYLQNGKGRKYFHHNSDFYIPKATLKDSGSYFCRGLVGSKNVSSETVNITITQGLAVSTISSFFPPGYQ
T1 sequence (P02745 23-245 limits assumed, chain 1 of 3): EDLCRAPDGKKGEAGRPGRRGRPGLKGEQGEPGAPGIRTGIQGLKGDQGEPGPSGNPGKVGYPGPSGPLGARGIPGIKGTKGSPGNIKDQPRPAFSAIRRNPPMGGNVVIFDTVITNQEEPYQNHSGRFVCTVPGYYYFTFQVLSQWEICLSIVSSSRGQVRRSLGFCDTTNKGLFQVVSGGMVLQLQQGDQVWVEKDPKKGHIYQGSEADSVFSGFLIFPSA
T1 sequence (P02746 28-253 limits assumed, chain 2 of 3): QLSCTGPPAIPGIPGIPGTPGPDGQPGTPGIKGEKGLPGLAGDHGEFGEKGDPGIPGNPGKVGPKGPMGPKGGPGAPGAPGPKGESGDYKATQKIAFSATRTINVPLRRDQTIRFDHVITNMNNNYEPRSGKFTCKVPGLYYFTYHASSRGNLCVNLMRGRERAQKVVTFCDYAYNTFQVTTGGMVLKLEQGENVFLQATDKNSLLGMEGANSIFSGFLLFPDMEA
T1 sequence (P02747 29-245 limits assumed, chain 3 of 3): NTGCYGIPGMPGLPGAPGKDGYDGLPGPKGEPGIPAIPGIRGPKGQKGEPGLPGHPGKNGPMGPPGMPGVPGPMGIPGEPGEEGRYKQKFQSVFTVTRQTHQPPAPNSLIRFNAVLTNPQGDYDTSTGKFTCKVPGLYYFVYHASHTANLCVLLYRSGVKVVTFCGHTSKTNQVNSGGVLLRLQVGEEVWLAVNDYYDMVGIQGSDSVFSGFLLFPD
T12 sequence (P08637 17-208 limits assumed): as the sequence (P08637 17-208 F176V limits assumed) above, with V160F counted along it
T9 sequence (P08637 17-208 F176V limits assumed): as the sequence (P08637 17-208 F176V limits assumed) above
T11 sequence (P08637 17-208 limits assumed): as the sequence (P08637 17-208 F176V limits assumed) above, with V160F counted along it
T5 sequence (O75015 17-200 limits assumed): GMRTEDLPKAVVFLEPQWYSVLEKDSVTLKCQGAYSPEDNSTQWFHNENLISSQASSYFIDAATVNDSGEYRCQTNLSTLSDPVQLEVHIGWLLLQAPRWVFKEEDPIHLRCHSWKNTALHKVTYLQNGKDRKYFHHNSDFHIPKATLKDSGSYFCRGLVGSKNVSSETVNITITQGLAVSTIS
T10 sequence (P12314 16-288 limits assumed): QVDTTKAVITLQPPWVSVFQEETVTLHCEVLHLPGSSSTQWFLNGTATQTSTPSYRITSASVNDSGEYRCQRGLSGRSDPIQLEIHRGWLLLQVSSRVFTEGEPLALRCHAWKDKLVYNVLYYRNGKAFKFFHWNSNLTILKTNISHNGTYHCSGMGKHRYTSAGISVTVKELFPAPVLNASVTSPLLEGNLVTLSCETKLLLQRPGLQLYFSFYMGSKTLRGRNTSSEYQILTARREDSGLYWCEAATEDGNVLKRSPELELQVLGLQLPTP

EC50 (read off the curve) [1]: ~3000 ng/mL
EC50 [2]: 0.00202 ng/mL
EC50 [3]: 63 ng/mL
ADCC EC50 (Raji target cells, KILR CD16a effector cells) [4]: 0.00242 ng/mL
EC50 [5]: 2600 ng/mL
CDC EC50 (Jeko-1 cells, rabbit serum complement) [6]: 670 ng/mL
EC50 of ADCC assay Using Primary NK Cells (Raji target cells, LDH release) [7]: 49000 ng/mL
Kd [8]: 64.1 nM
ADCC EC50, fold lower than OCREVUS [9]: ~25 fold
Kd [10]: 169 nM
Kd [11]: 42 nM
Kd [12]: 92 nM
Kd [13]: 158 nM
Kd [14]: 23 nM
Kd [15]: 20 nM
Kd [16]: 56 nM
Kd [17]: 680 nM
EC50 [18]: 983 ng/mL
fold higher affinity than OCREVUS [19]: ~10 fold
fold higher affinity than OCREVUS [20]: ~15 fold
B1: TG-1101 (TG Therapeutics, Inc.) (antibody, human IgG1, kappa)
heavy: not shown
light: QIVLSQSPAILSASPGEKVTMTCRASSSVSYMHWYQQKPGSSPKPWIYATSNLASGVPARFSGSGSGTSYSFTISRVEAEDAATYYCQQWTFNPPTFGGGTRLEIKRTVAAPSVFIFPPSDEQLKSGTASVVCLLNNFYPREAKVQWKVDNALQSGNSQESVTEQDSKDSTYSLSSTLTLSKADYEKHKVYACEVTHQGLSSPVTKSFNRGEC
notes: Chimeric IgG1 made in YB2/0 rat hybridoma cells, with low-fucose N-glycans; also called ublituximab; Ubli
